Measurements taken from patent US20250223280A1.
Bridges are numbered along the chain shown (N, C = ends). [ ]: non-standard residue; d: D form. Pro(4S-NH2) = N[C@@H]1CN[C@H](C(=O)O)C1

B1: Compound 65 (peptide)
peptide: cyclo(PDCAWHLGELVWCT[dP])
modifications: disulfide 3-13; not fully specified (residue 1); also: conjugate from starting material A137, ligand number not given here
B2: Compound 94 (peptide)
peptide: cyclo(PDCAWHLGELVWCT[dP])
modifications: disulfide 3-13; not fully specified (residue 1); also: 4-amino group of residue 1 acylated with linker to ASGPR ligands
B3: Intermediate 14 (peptide)
peptide: cyclo([Pro(4S-NH2)]DCSWHLGELVWCT[dP])
modifications: disulfide 3-13
SMILES: CC(C)C[C@@H]1NC(=O)[C@H](Cc2c[nH]cn2)NC(=O)[C@H](Cc2c[nH]c3ccccc23)NC(=O)[C@H](CO)NC(=O)[C@@H]2CSSC[C@H](NC(=O)[C@H](Cc3c[nH]c4ccccc34)NC(=O)[C@H](C(C)C)NC(=O)[C@H](CC(C)C)NC(=O)[C@H](CCC(=O)O)NC(=O)CNC1=O)C(=O)N[C@@H]([C@@H](C)O)C(=O)N1CCC[C@@H]1C(=O)N1C[C@@H](N)C[C@H]1C(=O)N[C@@H](CC(=O)O)C(=O)N2
B4: Compound 92 (peptide)
peptide: cyclo(PDCAWHLGELVWCT[dP])
modifications: disulfide 3-13; not fully specified (residue 1); also: linker and ASGPR ligand(s) not given here
B5: Compound 68 (peptide)
peptide: cyclo(PDCAWHLGELVWCT[dP])
modifications: disulfide 3-13; not fully specified (residue 1); also: 4-amino of residue 1 acylated with 4-(4-((4-(sugar-methyl)piperazin-1-yl)methyl)piperidin-1-yl)benzoic acid linker to ASGPR ligand (A140), one 6-(trifluoromethyl)pyrazin-2-ylamino sugar
B6: Compound 69 (peptide)
peptide: cyclo(PDCAWHLGELVWCT[dP])
modifications: disulfide 3-13; not fully specified (residue 1); also: conjugate from starting material A141
B7: Compound 72 (peptide)
peptide: cyclo(PDCAWHLGELVWCT[dP])
modifications: disulfide 3-13; not fully specified (residue 1); also: conjugate from starting material A144
B8: Intermediate 13 (peptide)
peptide: cyclo([Pro(4S-NH2)]NCAWHLGELVWCT[dP])
modifications: disulfide 3-13
SMILES: CC(C)C[C@@H]1NC(=O)[C@H](Cc2c[nH]cn2)NC(=O)[C@H](Cc2c[nH]c3ccccc23)NC(=O)[C@H](C)NC(=O)[C@@H]2CSSC[C@H](NC(=O)[C@H](Cc3c[nH]c4ccccc34)NC(=O)[C@H](C(C)C)NC(=O)[C@H](CC(C)C)NC(=O)[C@H](CCC(=O)O)NC(=O)CNC1=O)C(=O)N[C@@H]([C@@H](C)O)C(=O)N1CCC[C@@H]1C(=O)N1C[C@@H](N)C[C@H]1C(=O)N[C@@H](CC(N)=O)C(=O)N2
B9: Compound 64 (peptide)
peptide: cyclo(PDCAWHLGELVWCT[dP])
modifications: disulfide 3-13; not fully specified (residue 1); also: conjugate from starting material A125
B10: Compound 86 (peptide)
peptide: PDCAWHLGELVWCTP
modifications: residue 1 = (2S,4S)-4-aminoproline; residue 15 = D-Pro; backbone cyclised head to tail; disulfide Cys3-Cys13; 4-amino group of residue 1 acylated with the linker to the sugar ligands
B11: Compound 63 (peptide)
peptide: cyclo(PDCAWHLGELVWCT[dP])
modifications: disulfide 3-13; not fully specified (residue 1); also: conjugate from starting material A40
B12: Compound 61 (peptide)
peptide: cyclo(PDCAWHLGELVWCT[dP])
modifications: disulfide 3-13; not fully specified (residue 1); also: conjugate: Intermediate 11 acylated with phenoxyacetic acid TFP ester carrying one 6-(trifluoromethyl)pyrazin-2-ylamino sugar
B13: Compound 80 (peptide)
peptide: PDCAWHLGELVWCTP
modifications: not fully specified; residue 1 = (2S,4S)-4-aminoproline; residue 15 = D-Pro; backbone cyclised head to tail; disulfide Cys3-Cys13; 4-amino group of residue 1 acylated with the butanoyl-triazole linker to the ASGPR ligand
B14: Compound 66 (peptide)
peptide: cyclo(PDCAWHLGELVWCT[dP])
modifications: disulfide 3-13; not fully specified (residue 1); also: conjugate from starting material A138
B15: Compound 53 (peptide)
peptide: cyclo(PDCAWHLGELVWCT[dP])
modifications: disulfide 3-13; not fully specified (residue 1); also: conjugate: hex-5-ynoyl peptide clicked to azide A18
B16: Compound 91 (peptide)
peptide: PDCAWHLGELVWCTP
modifications: not fully specified; residue 1 = (2S,4R)-4-aminoproline; residue 15 = D-Pro; backbone cyclised head to tail; disulfide Cys3-Cys13; 4-amino group of residue 1 acylated with the linker to the ASGPR ligand
B17: Compound 51 (peptide)
peptide: cyclo(PDCAWHLGELVWCT[dP])
modifications: disulfide 3-13; not fully specified (residue 1); also: conjugate: hex-5-ynoyl peptide (Intermediate 48) clicked to one 6-(trifluoromethyl)pyrazin-2-ylamino sugar azide
B18: Intermediate 4 (peptide)
peptide: PDCAWHLGELVWCTP
modifications: residue 1 = (2S,4S)-4-aminoproline; residue 15 = D-Pro; backbone cyclised head to tail; disulfide Cys3-Cys13; 4-amino group of residue 1 acylated with PEG4-propanoyl capped by hex-5-ynamide
B19: Intermediate 8 (peptide)
peptide: PDCAWHLGELVWCTP
modifications: residue 1 = (2S,4S)-4-aminoproline; residue 15 = D-Pro; backbone cyclised head to tail; disulfide Cys3-Cys13; 4-amino group of residue 1 acylated (linker only in a drawing; the mass fits hex-5-ynoyl)
B20: Compound 95 (peptide)
peptide: cyclo(PDCAWHLGELVWCT[dP])
modifications: disulfide 3-13; not fully specified (residue 1); also: 4-amino group of residue 1 acylated with linker to ASGPR ligands
B21: Compound 85 (peptide)
peptide: PDCAWHLGELVWCTP
modifications: residue 1 = (2S,4S)-4-aminoproline; residue 15 = D-Pro; backbone cyclised head to tail; disulfide Cys3-Cys13; 4-amino group of residue 1 acylated with the linker to the sugar ligands
B22: Compound 67 (peptide)
peptide: cyclo(PDCAWHLGELVWCT[dP])
modifications: disulfide 3-13; not fully specified (residue 1); also: conjugate from starting material A139
B23: Compound 84 (peptide)
peptide: PDCAWHLGELVWCTP
modifications: residue 1 = (2S,4S)-4-aminoproline; residue 15 = D-Pro; backbone cyclised head to tail; disulfide Cys3-Cys13; 4-amino group of residue 1 acylated with the linker to the sugar ligands
B24: Intermediate 12 (peptide)
peptide: cyclo([Pro(4S-NH2)]ACAWHLGELVWCT[dP])
modifications: disulfide 3-13
SMILES: CC(C)C[C@@H]1NC(=O)[C@H](Cc2c[nH]cn2)NC(=O)[C@H](Cc2c[nH]c3ccccc23)NC(=O)[C@H](C)NC(=O)[C@@H]2CSSC[C@H](NC(=O)[C@H](Cc3c[nH]c4ccccc34)NC(=O)[C@H](C(C)C)NC(=O)[C@H](CC(C)C)NC(=O)[C@H](CCC(=O)O)NC(=O)CNC1=O)C(=O)N[C@@H]([C@@H](C)O)C(=O)N1CCC[C@@H]1C(=O)N1C[C@@H](N)C[C@H]1C(=O)N[C@@H](C)C(=O)N2
B25: Intermediate 6 (peptide)
peptide: PDCAWHLGELVWCTP
modifications: residue 1 = (2S,4S)-4-aminoproline; residue 15 = D-Pro; backbone cyclised head to tail; disulfide Cys3-Cys13; 4-amino group of residue 1 acylated with PEG2-propanoyl capped by hex-5-ynamide
B26: Intermediate 5 (peptide)
peptide: PDCAWHLGELVWCTP
modifications: residue 1 = (2S,4S)-4-aminoproline (free 4-amino group); residue 15 = D-Pro; backbone cyclised head to tail; disulfide Cys3-Cys13
B27: Compound 52 (peptide)
peptide: cyclo(PDCAWHLGELVWCT[dP])
modifications: disulfide 3-13; not fully specified (residue 1); also: conjugate: hex-5-ynoyl peptide clicked to azide A2
B28: Intermediate 7 (peptide)
peptide: PDCAWHLGELVWCTP
modifications: residue 1 = (2S,4S)-4-aminoproline; residue 15 = D-Pro; backbone cyclised head to tail; disulfide Cys3-Cys13; 4-amino group of residue 1 acylated with 3-(2-(hex-5-ynamido)ethoxy)propanoyl

Each binder was assayed against IgG (assay: SPR, IgG immobilised on CM5 chip, compound as analyte; value from the legend of the grade (**** = Kd <100 nM)).

Kd, < 100 nM:
cyclo(PDCAWHLGELVWCT[dP]) (disulfide 3-13; not fully specified (residue 1)) [Intermediate 30]
B1
cyclo(PD[(S)‑2‑aminohex‑5‑enoic acid]AWHLGELVW[(S)‑2‑aminopent‑4‑enoic acid]T[dP]) (staple 3-13) [Intermediate 31]
B2
B3
B4
B5
B6
B7
B8
B9
B10
B11
B12
B13
B14
B15
B16
B17
B18
B19
cyclo(PDCAWHLGELVWCT[dP]) (disulfide 3-13; not fully specified (residue 1); also: conjugate from acid A32) [Compound 62]
B20
B21
B22
B23
B24

The binders below were run against IgG (assay: SPR, IgG immobilised on CM5 chip, compound as analyte; value from the legend of the grade (++++ = Kd <100 nM)).

Kd, < 100 nM:
B8
cyclo(PDCAWHLGELVWCT[dP]) (disulfide 3-13; not fully specified (residue 1)) [Intermediate 9]
B25
B26
B27
B15
B18
B28
B24
